From patent US20050026256

Target: T1, synthetic peptide substrate SEVNLDAEFR containing the APP Swedish mutation
T1 chain: SEVNLDAEFR

B1: Hu-Asp2 (human aspartyl protease 2), full-length, expressed from pcDNA3.1(+)Hygro/Hu-Asp2 (protein)
chain: TQHGIRLPLRSGLGGAPLGLRLPRETDEEPEEPGRRGSFVEMVDNLRGKSGQGYYVEMTVGSPPQTLNILVDTGSSNFAVGAAPHPFLHRYYQRQLSSTYRDLRKGVYVPYTQGKWEGELGTDLVSIPHGPNVTVRANIAAITESDKFFINGSNWEGILGLAYAEIARPDDSLEPFFDSLVKQTHVPNLFSLQLCGAGFPLNQSEVLASVGGSMIIGGIDHSLYTGSLWYTPIRREWYYEVIIVRVEINGQDLKMDCKEYNYDKSIVDSGTTNLRLPKKVFEAAVKSIKAASSTEKFPDGFWLGEQLVCWQAGTTPWNIFPVISLYLMGEVTNQSFRITILPQQYLRPVEDVATSQDDCYKFAISQSSTGTVMGAVIMEGFYVVFDRARKRIGFAVSACHVHDEFRTAAVEGPFVTLDMEDCGYNIPQTDESTLMTIAYVMAAICALFMLPLCLMVCQWRCLRCLRQQHDDFADDISLLK
hydrolysis of the synthetic peptide substrate, RP-HPLC with UV detection; products identified by Edman sequencing and MALDI-TOF: the two product peaks which eluted before the intact peptide substrate, were confirmed to have the sequence DAEFR and SEVNL | β-secretase activity of chromatography fractions (peptide substrate assay): Fractions containing both Hu-Asp2 immunoreactivity and β-secretase activity were combined
